# From publication PMC2995059
# Molecular target: HA-tagged full-size GAM (GAM/ZFp/ZNF512B) (human) (UniProt Q96KM6)
# Experiment: co-IP
# Chain of UniProt Q96KM6 (Q96KM6 whole entry): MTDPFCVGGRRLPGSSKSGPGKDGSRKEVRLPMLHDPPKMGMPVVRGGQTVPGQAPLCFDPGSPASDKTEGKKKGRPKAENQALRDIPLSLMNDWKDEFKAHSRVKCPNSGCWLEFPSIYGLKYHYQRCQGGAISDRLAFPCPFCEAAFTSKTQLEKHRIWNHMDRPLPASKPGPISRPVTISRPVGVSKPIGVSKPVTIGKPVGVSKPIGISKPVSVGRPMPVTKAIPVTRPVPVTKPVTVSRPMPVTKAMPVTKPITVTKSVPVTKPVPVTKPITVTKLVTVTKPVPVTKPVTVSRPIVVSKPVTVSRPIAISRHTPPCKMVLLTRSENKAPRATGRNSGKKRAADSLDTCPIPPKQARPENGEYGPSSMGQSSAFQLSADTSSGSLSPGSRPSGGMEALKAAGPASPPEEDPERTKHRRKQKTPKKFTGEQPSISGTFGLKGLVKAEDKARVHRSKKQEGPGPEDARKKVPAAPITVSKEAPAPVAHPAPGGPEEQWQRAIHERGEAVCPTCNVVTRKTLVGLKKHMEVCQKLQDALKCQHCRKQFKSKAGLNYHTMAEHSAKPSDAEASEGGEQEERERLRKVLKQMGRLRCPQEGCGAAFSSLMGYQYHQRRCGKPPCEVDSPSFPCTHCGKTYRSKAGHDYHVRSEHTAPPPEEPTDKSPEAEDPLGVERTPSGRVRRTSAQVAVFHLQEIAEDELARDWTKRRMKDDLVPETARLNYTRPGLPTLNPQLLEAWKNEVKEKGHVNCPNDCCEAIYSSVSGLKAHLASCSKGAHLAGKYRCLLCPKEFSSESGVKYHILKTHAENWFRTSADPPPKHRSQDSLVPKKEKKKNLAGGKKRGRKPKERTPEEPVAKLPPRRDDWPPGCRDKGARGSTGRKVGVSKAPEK
binder,measurement,value
endogenous Drosha (enzyme) MMQGNTCHRMSFHPGRGCPRGRGGHGARPSAPSFRPQNLRLLHPQQPPVQYQYEPPSAPSTTFSNSPAPNFLPPRPDFVPFPPPMPPSAQGPLPPCPIRPPFPNHQMRHPFPVPPCFPPMPPPMPCPNNPPVPGAPPGQGTFPFMMPPPSMPHPPPPPVMPQQVNYQYPPGYSHHNFPPPSFNSFQNNPSSFLPSANNSSSPHFRHLPPYPLPKAPSERRSPERLKHYDDHRHRDHSHGRGERHRSLDRRERGRSPDRRRQDSRYRSDYDRGRTPSRHRSYERSRERERERHRHRDNRRSPSLERSYKKEYKRSGRSYGLSVVPEPAGCTPELPGEIIKNTDSWAPPLEIVNHRSPSREKKRARWEEEKDRWSDNQSSGKDKNYTSIKEKEPEETMPDKNEEEEEELLKPVWIRCTHSENYYSSDPMDQVGDSTVVGTSRLRDLYDKFEEELGSRQEKAKAARPPWEPPKTKLDEDLESSSESECESDEDSTCSSSSDSEVFDVIAEIKRKKAHPDRLHDELWYNDPGQMNDGPLCKCSAKARRTGIRHSIYPGEEAIKPCRPMTNNAGRLFHYRITVSPPTNFLTDRPTVIEYDDHEYIFEGFSMFAHAPLTNIPLCKVIRFNIDYTIHFIEEMMPENFCVKGLELFSLFLFRDILELYDWNLKGPLFEDSPPCCPRFHFMPRFVRFLPDGGKEVLSMHQILLYLLRCSKALVPEEEIANMLQWEELEWQKYAEECKGMIVTNPGTKPSSVRIDQLDREQFNPDVITFPIIVHFGIRPAQLSYAGDPQYQKLWKSYVKLRHLLANSPKVKQTDKQKLAQREEALQKIRQKNTMRREVTVELSSQGFWKTGIRSDVCQHAMMLPVLTHHIRYHQCLMHLDKLIGYTFQDRCLLQLAMTHPSHHLNFGMNPDHARNSLSNCGIRQPKYGDRKVHHMHMRKKGINTLINIMSRLGQDDPTPSRINHNERLEFLGDAVVEFLTSVHLYYLFPSLEEGGLATYRTAIVQNQHLAMLAKKLELDRFMLYAHGPDLCRESDLRHAMANCFEALIGAVYLEGSLEEAKQLFGRLLFNDPDLREVWLNYPLHPLQLQEPNTDRQLIETSPVLQKLTEFEEAIGVIFTHVRLLARAFTLRTVGFNHLTLGHNQRMEFLGDSIMQLVATEYLFIHFPDHHEGHLTLLRSSLVNNRTQAKVAEELGMQEYAITNDKTKRPVALRTKTLADLLESFIAALYIDKDLEYVHTFMNVCFFPRLKEFILNQDWNDPKSQLQQCCLTLRTEGKEPDIPLYKTLQTVGPSHARTYTVAVYFKGERIGCGKGPSIQQAEMGAAMDALEKYNFPQMAHQKRFIERKYRQELKEMRWEREHQEREPDETEDIKK,reduction of co-precipitated Drosha after RNase A pre-treatment of the extract,50%
